Measured values: publication PMC1781933, “Structure-based engineering of papillomavirus major capsid L1: controlling particle assembly” (Virology Journal, 2007)

Target: the molecule itself
Experiment: SEC; Superdex-200, L1 eluted from the glutathione column after thrombin cleavage; step: L1 chains to pentamer

B1: full-length HPV16 L1 (natural protein)
chain: MSLWLPSEATVYLPPVPVSKVVSTDEYVARTNIYYHAGTSRLLAVGHPYFPIKKPNNNKILVPKVSGLQYRVFRIHLPDPNKFGFPDTSFYNPDTQRLVWACVGVEVGRGQPLGVGISGHPLLNKLDDTENASAYAANAGVDNRECISMDYKQTQLCLIGCKPPIGEHWGKGSPCTNVAVNPGDCPPLELINTVIQDGDMVDTGFGAMDFTTLQANKSEVPLDICTSICKYPDYIKMVSEPYGDSLFFYLRREQMFVRHLFNRAGAVGENVPDDLYIKGSGSTANLASSNYFPTPSGSMVTSDAQIFNKPYWLQRAQGHNNGICWGNQLFVTVVDTTRSTNMSLCAAISTSETTYKNTNFKEYLRHGEEYDLQFIFQLCKITLTADVMTYIHSMNSTILEDWNFGLQPPPGGTLEDTYRFVTSQAIACQKHTPPAPKEDPLKKYTFWEVNLKEKFSADLDQFPLGRKFLLQAGLKAKPKFTLGKRKATPTTSSTSTTAKRKKRKL
notes: major capsid protein L1 of human papillomavirus type 16, full-length clone in pGEX-2T; Purified as pentamers; forms T = 7 particles in assembly buffer; also called wild-type L1; major capsid L1 protein; source: E. coli, expressed as GST-L1 fusion from pGEX-2T, glutathione column, cleaved with thrombin, Superdex-200; not shown: GST, N-terminal, cleaved
B1 was tested, and the “stoichiometry N” value was 5.
